Test results: PMC7076219

Target: ligands on KG1a cells (human (endogenous in KG1a))
Assay: flow cytometry on cells; KG1a cells stained with 10 ug/ml E-selectin protein in HBSS with 5% FBS and 2 mM CaCl2, 4 °C, 20 min; detected by Strep-tag II mAb and PE anti-mouse IgG1

- percent of the live KG1a population bound: 86%
B1: E-S6 (monomeric full-length extracellular mouse E-selectin) (domain or fragment)
chain: WYYNASSELMTYDEASAYCQRDYTHLVAIQNKEEINYLNSNLKHSPSYYWIGIRKVNNVWIWVGTGKPLTEEAQNWAPGEPNNKQRNEDCVEIYIQRTKDSGMWNDERCNKKKLALCYTASCTNASCSGHGECIETINSYTCKCHPGFLGPNCEQAVTCKPQEHPDYGSLNCSHPFGPFSYNSSCSFGCKRGYLPSSMETTVRCTSSGEWSAPAPACHVVECEALTHPAHGIRKCSSNPGSYPWNTTCTFDCVEGYRRVGAQNLQCTSSGIWDNETPSCKAVTCDAIPQPQNGFVSCSHSTAGELAFKSSCNFTCEQSFTLQGPAQVECSAQGQWTPQIPVCKAVQCEALSAPQQGNMKCLPSASGPFQNGSSCEFSCEEGFELKGSRRLQCGPRGEWDSKKPTCSAVKCDDVPRPQNGVMECAHATTGEFTYKSSCAFQCNEGFSLHGSAQLECTSQGKWTQEVPSCQVVQCPSLDVPGKMNMSCSGTAVFGTVCEFTCPDDWTLNGSAVLTCGATGRWSGMPPTCEAPVSPTRP
